Data published in patent US20230054274A1, “PEPTIDE-MHC COMPLEXES” (priority 2019, published 2023).

Molecular target: HLA-E*01:03 (Homo sapiens, UniProt P13747)
Test: Stability of native peptide-HLA-E complexes by loss of ILT2 binding over time (SPR)

HLA-E*01:03, sequence (P13747 with tags, fused parts or gaps): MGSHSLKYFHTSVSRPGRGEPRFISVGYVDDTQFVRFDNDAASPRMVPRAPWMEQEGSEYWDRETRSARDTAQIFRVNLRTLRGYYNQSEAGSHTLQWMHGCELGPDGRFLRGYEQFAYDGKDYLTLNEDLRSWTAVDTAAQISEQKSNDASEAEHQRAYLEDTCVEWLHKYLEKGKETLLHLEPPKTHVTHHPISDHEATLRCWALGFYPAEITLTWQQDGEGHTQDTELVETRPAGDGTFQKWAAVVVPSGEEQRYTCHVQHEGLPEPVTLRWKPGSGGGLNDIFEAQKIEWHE
HLA-E*01:03, sequence (P61769 with tags, fused parts or gaps partner): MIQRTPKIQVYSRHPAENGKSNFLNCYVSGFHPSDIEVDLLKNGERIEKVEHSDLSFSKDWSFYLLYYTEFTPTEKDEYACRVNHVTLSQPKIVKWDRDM

Row | Sequence | T 1/2 (h) (HLA-E*01:03) ([…], half-life by ILT2 binding) | T 1/2 (h) (HLA-E*01:03) (native unmodified peptide in complex with HLA-E*01:03, half-life by ILT2 binding)
1 | ILPSDAPVL [MTB peptide known to be presented by HLA-E] | 0.70 | 
2 | VMATRRNVL [MTB peptide known to be presented by HLA-E] | 0.57 | 
3 | RMYSPVSIL [HIV (Gag 275) peptide known to be presented by HLA-E] | 0.27 | 
4 | VMAPRTLVL |  | 3.00
5 | VMAPRTLIL | 3.20 | 
